This note sets out measurements from publication PMC11466669 (The Journal of Biological Chemistry, 2024).

Numbering of substitutions follows the chain as printed. Names may count otherwise.

The target of data set [1] is T1, MsRuvC WT (Mycobacterium smegmatis mc2 155) (UniProt A0QWH4).
T1 sequence: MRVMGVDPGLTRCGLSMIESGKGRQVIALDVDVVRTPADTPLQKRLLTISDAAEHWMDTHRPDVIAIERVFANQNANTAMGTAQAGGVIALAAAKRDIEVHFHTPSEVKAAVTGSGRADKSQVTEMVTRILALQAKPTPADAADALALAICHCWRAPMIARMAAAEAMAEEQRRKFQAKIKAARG
As to the kind of experiment: SPR. A general note: Surface plasmon resonance follows binding to a sensor surface in real time, without labels.

Data set [2] deals with T2, MsRuvC WT (Mycobacterium smegmatis mc2 155, UniProt A0QWH4 1-185).
T2 sequence: T1 sequence
As to the kind of experiment: MST.

The target of data set [3] is T3, MsRuvC-D7A (Mycobacterium smegmatis mc2 155, UniProt A0QWH4 1-185, D7A).
T3 sequence: T1 sequence with D7A
Put plainly: MST.

For data set [4], the target named is T4, MsRuvC-E68A (Mycobacterium smegmatis mc2 155, UniProt A0QWH4 1-185, E68A).
T4 sequence: T1 sequence with E68A
As to the kind of experiment: MST.

Data set [5] concerns the molecule itself. Put plainly: SEC. On the technique in general: SEC sorts molecules by how far they enter the pores of the column.

Broadly, the Kd is the concentration at which binding is half-saturated. Read a low Kd as a tighter complex. On to 5'-flap structure, for which the dissociation constant Kd in data set [1] came to 410 nM.

Regarding Splayed-arm duplex, the equilibrium dissociation constant (Kd) in data set [1] came out at 480 nM.

In the case of Replication fork, in data set [1], the Kd was found to be 203 nM.

In turn, dsDNA with 5'-ssDNA overhang gave a dissociation constant (Kd) in data set [1] of 201 nM.

Regarding 3'-flap structure (SPR), the Kd in data set [1] is 296 nM.

In data set [1], dsDNA with 3'-ssDNA overhang returned a Kd of 263 nM.

B1: Mobile HJ (MST) (structured_DNA)
DNA 1: GACGCTGCCGAATTCTACCAGTGCCTTGCTAGGACATCTTTGCCCACCTGCAGGTTCACCC
DNA 2: TGGGTGAACCTGCAGGTGGGCAAAGATGTCCTAGCAATGTAATCGTCAAGCTTTATGCCGTT
DNA 3: CAACGGCATAAAGCTTGACGATTACATTGCTAGGACATGCTGTCTAGAGGATCCGACTATCGA
DNA 4: ATCGATAGTCGGATCCTCTAGACAGCATGTCCTAGCAAGGCACTGGTAGAATTCGGCAGCGT
As to B1, the values for the dissociation constant (Kd) in data set [2], in data set [3] and in data set [4] were 580 ± 270 nM, 650 ± 170 nM and 300 ± 110 nM, respectively.

B2: Mycobacterium smegmatis RuvC (enzyme)
chain: T1 sequence
Broadly, the stoichiometry N is the number of molecules, sites or subunits per partner or assembly. Take B2: the “stoichiometry N” value in data set [5] was 2.

B3: MsRuvC-D7A (enzyme)
chain: T1 sequence with D7A
Regarding B3, in data set [5], the “stoichiometry N” value amounted to 2.

B4: MsRuvC-E68A (enzyme)
chain: T1 sequence with E68A
With B4, the “stoichiometry N” value in data set [5] is 2.
